Patent publication US20230272011A1 (AVACTA LIFE SCIENCES, published 2023)

Target: T1, human serum albumin (human, UniProt P02768 25-609)
T1 construct: mature; Bought protein; biotinylated in the Octet and HTRF assays; also called HSA; HuSA
Test: SPR (Biacore), immobilised HSA, Affimer analyte
Experimental: Affinities for mouse, human, and cynomolgus serum were also measured at pH 7.4 for four (4) AFFIMER® binders using surface plasmon resonance (SPR) (FIG. 5, Table 5). […] A concentration titration of AFFIMER® monomers was run as analyte at a flow rate of 30 μl/min or 60 μl/min. Fc2-1, Fc3-1 and Fc4-1 kinetic data was blank subtracted and fit to a 1:1 Langmuir binding model (BIAcore Evalution software; GE) to calculate KD values. […]

- Kd: 5.13 nM
- koff: 0.00435 s⁻¹
- kon: 848000 M⁻¹ s⁻¹
B1: HSA-41 (designed binder)
chain: MIPRGLSEAKPATPEIQEIVDKVKPQLEEKTNETYGKLEAVQYKTQVLANFFQRRWPGSTNYYIKVRAGDNKYMHLKVFNGPWKFRNTDRGADRVLTGYQVDKNKDDELTGFHHHHHH
notes: also called HSA-41 parent; HSA-41 AH parent
